For the assay, the target named is human FcαRI (IgA Fc receptor, CD89) on effector cells (human) (UniProt P24071). As to the kind of experiment: cell-based or functional assay.

Where only a bound is given, the exact number is not on record here.

“A77X520C9 anti-FcαRXanti-HER2/neu bispecific antibody” came in with a BsAb-dependent lysis of SKBR-3 cells by purified PMN, 1.0 µg/ml BsAb (FIG. 10) of less than 37%; a cytolysis of SKBR-3 breast tumor cells by effector cells in whole blood, 0.1 µg/ml BsAb (FIG. 8) of 15 to 20%; a cytolysis of SKBR-3 breast tumor cells by effector cells in whole blood, 1.0 µg/ml BsAb (FIG. 8) of 25 to 30%; a cytotoxicity of SKBR-3 cells by neutrophil effector cells (51Cr release), 0.1 µg/ml BsAb (FIG. 7) of 6 to 9%. In addition, the cytotoxicity of SKBR-3 cells by neutrophil effector cells (51Cr release), 1.0 µg/ml BsAb (FIG. 7) lay in the range of 20 to 30%; the cytotoxicity of SKBR-3 cells by neutrophils pre-incubated with G-CSF and IFN-γ, 0.1 µg/ml BsAb (FIG. 22) is greater than 10%; the percent effector cells (monocytes or neutrophils) engaged in phagocytosis of SKBR-3 cells (FIG. 18) was in the range of 65 to 75%; the phagocytosis of SKBR-3 cells by monocyte-derived macrophages, 0.1 µg/ml BsAb (FIG. 19, panel 5; about 45% without BsAb) was greater than 95%.

On to “A77XH425 bispecific antibody (anti-FcαRI x anti-EGF-R)”, for which the BsAb-dependent lysis of A431 cells by purified monocytes (FIG. 14) was less than 55%; the BsAb-dependent lysis of A431 cells with whole blood as source of effector cells (FIG. 15) is less than 43%; the cytolysis of tumor cells by TNF-treated monocytes, 1.0 µg/ml BsAb (FIG. 23) is greater than 60%; the cytolysis of tumor cells by untreated monocytes, 1.0 µg/ml BsAb (FIG. 23) was greater than 60%.

The values are drawn from patent US20010014328A1.
